Positions count from the first letter of the chain named.
T1: biotinylated recombinant human IL-12Rβ2 (produced in-house) (human, UniProt Q99665 24-622, randomly biotinylated)
T1 construct: also called hIL-12RB2; human IL-12RB2
T1 sequence: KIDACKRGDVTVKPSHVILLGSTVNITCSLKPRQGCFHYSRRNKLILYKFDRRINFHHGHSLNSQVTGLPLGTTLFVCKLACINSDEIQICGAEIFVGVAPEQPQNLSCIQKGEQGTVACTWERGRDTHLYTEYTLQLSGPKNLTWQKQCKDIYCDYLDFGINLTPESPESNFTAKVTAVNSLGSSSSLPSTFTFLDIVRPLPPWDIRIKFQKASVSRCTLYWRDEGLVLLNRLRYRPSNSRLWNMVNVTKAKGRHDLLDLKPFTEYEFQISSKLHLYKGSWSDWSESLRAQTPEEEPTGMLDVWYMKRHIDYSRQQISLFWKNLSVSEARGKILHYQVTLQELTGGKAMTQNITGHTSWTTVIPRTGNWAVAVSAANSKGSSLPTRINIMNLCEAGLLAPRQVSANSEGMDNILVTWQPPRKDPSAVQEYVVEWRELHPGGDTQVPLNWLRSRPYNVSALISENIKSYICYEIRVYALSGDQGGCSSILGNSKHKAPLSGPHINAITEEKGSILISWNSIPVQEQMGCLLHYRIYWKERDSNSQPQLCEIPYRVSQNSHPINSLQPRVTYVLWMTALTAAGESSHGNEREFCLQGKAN

T2: human IL-12Rβ2 expressed on cells (human, UniProt Q99665 24-862)
T2 sequence: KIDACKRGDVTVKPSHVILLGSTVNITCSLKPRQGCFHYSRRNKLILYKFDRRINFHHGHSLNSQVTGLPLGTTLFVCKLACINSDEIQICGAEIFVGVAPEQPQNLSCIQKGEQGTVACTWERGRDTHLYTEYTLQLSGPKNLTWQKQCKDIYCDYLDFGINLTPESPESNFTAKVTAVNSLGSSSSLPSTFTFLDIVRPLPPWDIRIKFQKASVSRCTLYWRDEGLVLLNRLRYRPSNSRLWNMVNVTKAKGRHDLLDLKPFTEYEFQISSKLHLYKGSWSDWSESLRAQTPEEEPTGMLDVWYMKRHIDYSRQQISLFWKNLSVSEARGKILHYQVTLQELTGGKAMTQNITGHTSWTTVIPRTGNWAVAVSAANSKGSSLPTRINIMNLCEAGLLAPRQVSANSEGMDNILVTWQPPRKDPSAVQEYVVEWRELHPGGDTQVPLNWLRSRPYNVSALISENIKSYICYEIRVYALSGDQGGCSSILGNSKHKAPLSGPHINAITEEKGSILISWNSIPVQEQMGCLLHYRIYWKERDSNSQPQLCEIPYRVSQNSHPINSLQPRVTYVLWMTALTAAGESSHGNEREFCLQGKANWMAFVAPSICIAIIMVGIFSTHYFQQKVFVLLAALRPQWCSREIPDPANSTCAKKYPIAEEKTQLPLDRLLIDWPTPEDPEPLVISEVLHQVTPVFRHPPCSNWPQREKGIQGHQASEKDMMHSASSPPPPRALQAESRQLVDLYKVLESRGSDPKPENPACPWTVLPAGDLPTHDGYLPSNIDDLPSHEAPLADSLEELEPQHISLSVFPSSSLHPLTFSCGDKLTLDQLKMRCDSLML

T3: human IL-12Rβ2 (human, UniProt Q99665 24-862)
T3 construct: Expressed on HEK293T cells transiently transfected with a pcDNA3 plasmid (Genscript clone OHu21785); also called hIL-12RB2; IL-12 receptor β2 subunit
T3 sequence: T2 sequence

T4: mouse IL-12Rβ2 (mouse, UniProt P97378 24-874)
T4 construct: Expressed on HEK293T cells transiently transfected with a pcDNA3 plasmid (Genscript clone OMu01776); also called mIL-12RB2; NP_032380.1
T4 sequence: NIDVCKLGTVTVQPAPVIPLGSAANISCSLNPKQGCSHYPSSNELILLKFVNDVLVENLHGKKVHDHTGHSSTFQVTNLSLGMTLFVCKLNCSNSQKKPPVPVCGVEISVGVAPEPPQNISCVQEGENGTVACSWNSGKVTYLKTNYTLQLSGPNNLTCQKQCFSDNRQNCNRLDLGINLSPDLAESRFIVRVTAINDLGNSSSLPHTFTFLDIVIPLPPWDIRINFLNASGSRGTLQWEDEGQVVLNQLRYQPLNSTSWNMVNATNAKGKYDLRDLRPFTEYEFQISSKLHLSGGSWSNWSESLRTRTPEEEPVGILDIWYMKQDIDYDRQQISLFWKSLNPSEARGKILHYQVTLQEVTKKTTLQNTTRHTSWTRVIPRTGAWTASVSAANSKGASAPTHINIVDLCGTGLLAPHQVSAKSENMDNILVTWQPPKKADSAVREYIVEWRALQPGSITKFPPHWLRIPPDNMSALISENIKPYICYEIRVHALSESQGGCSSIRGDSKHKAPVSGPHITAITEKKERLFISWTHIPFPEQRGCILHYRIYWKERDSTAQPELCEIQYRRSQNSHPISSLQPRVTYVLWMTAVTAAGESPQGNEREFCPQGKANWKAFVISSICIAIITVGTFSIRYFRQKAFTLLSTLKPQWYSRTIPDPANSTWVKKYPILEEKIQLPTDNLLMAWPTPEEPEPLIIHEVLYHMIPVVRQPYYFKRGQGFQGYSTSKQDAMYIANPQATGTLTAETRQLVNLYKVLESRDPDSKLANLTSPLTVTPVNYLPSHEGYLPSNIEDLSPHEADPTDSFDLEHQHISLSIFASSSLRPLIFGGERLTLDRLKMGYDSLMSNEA

B1: anti-IL-12Rβ2 VHH clone 3CRM66 (VHH)
VHH: QVQLQESGGGLVQPGGSLRLSCAASGSTFSIHAMGWYRQAPGKKRELVARITRGGSTNYADSVKGRFTISVDNAKNTVYLQMNSLKPEDTAVYDCNAETGWGEWDDYWGQGTQVTVSS
notes: Tested as periplasmic extract; CDR3 group 42; also called 20461
B2: anti-IL-12Rβ2-VHH-FcDE clone 21062 (Fc fusion)
chain: QVQLQESGGGLVQPGGSLRLSCAASGISSSRLHVGWFRQSPGKEREFVAAISLSGGTQAYTDSVKGRFTISGDNVKNTAYLQMNSLRPEDTAVYYCAARERFIWTWSDLTYDYWGQGTQVTVSSAPELLGGPDVFLFPPKPKDTLMISRTPEVTCVVVDVSHEDPEVKFNWYVDGVEVHNAKTKPREEQYNSTYRVVSVLTVLHQDWLNGKEYKCKVSNKALPAPEEKTISKAKGQPREPQVYTLPPSRDELTKNQVSLTCLVKGFYPSDIAVEWESNGQPENNYKTTPPVLDSDGSFFLYSKLTVDKSRWQQGNVFSCSVMHEALHNHYTQKSLSLSPGK
B3: anti-IL-12Rβ2 VHH clone 3CRHM20 (VHH, not shown: small tags and cut ends)
VHH: QVQLQESGGGLVQAGGSLRLSCAASGRTFSKSTMGWFRQTPGKEREFVAAITWTDTEVYANSVKDRFTISRDNAKNTFYLQMHSLKLEDTAVYYCAGDRYGSSRDSVFSSPTNYPYWGQGTQVTVSS
notes: periplasmic extract; also called 21055
B4: anti-IL-12Rβ2 VHH clone 3CAHM11 (VHH, not shown: small tags and cut ends)
VHH: QVQLQESGGGLVQAGGSLRLSCAASGRTFNNYAMAWFRQAPGKEREFIAAITRSDTTLYIDSVKGRFTISRDNAKNTVALQMNSLKPEDTAVYYCAAGMPYSYSDYPRDSKYDYWGRGTQVTVSS
notes: periplasmic extract
B5: anti-IL-12Rβ2 VHH clone 3CRHM99 (VHH, not shown: small tags and cut ends)
VHH: QVQLQESGGGLVQPGGSLRLSCAASGISSSRLHVGWFRQSPGKEREFVAAISLSGGTQAYTDSVKGRFTISGDNVKNTAYLQMNSLRPEDTAVYYCAARERFIWTWSDLTYDYWGQGTQVTVSS
notes: periplasmic extract; also called 21062
B6: anti-IL-12Rβ2 VHH clone 3CRHM73 (VHH, not shown: small tags and cut ends)
VHH: QVQLQESGGGLVQAGGSLSLSCAASGSAFRLNFMGWYRQAPGKQRELVAAINSGGTEIYHDSVKGRFTISRDNADSTVWLQMNSLKPDDTAVYYCAADRGISWSKLAGGMDYWGKGTQVTVSS
notes: periplasmic extract; also called 21060
B7: anti-IL-12Rβ2 VHH clone 3CRHM49 (VHH, not shown: small tags and cut ends)
VHH: QVQLQESGGGLVQAGGSLRLSCAASGRTFSNYAMAWFRQAPGTEREFVAGLSGSGGDTAFYDNSVMGRFTISRDSAKNTMWLQINNLKPEDTAVYYCAAATHVVVSYGLVRRRGTYDYWGQGTQVTVSS
notes: periplasmic extract; also called 21058
B8: anti-IL-12Rβ2 VHH clone 3CRHM200 (VHH, not shown: small tags and cut ends)
VHH: B7 VHH with A14P
notes: periplasmic extract; also called 21064
B9: anti-IL-12Rβ2 VHH clone 3CRHM14 (VHH, not shown: small tags and cut ends)
VHH: B7 VHH with A59E, N63D, M66K, T70A, M80V, I84M, N86S, S106H
notes: periplasmic extract
B10: anti-IL-12Rβ2 VHH clone 3CRHM35 (VHH, not shown: small tags and cut ends)
VHH: B7 VHH with S106N
notes: periplasmic extract; also called 21057
B11: anti-IL-12Rβ2 VHH clone 3CRHM18 (VHH, not shown: small tags and cut ends)
VHH: B7 VHH with A14D, R112K
notes: periplasmic extract
B12: anti-IL-12Rβ2 VHH clone 3CRHM12 (VHH, not shown: small tags and cut ends)
VHH: QVQLQESGGGSVQAGGSLRLSCAVSGRTVSDYAMGWFRQAPGKEREFVAAMSSSETTVYPNSVKGRITISRDNAKNAVYLQMNALKPEDTAVYYCSMGPIVTFQGLARQNEYHYWGQGTQVTVSS
notes: periplasmic extract
B13: anti-IL-12Rβ2 VHH clone 3CRHM240 (VHH, not shown: small tags and cut ends)
VHH: B12 VHH with A49V, P60T, V101T
notes: periplasmic extract; also called 21065
B14: anti-IL-12Rβ2 VHH clone 3CRHM133 (VHH, not shown: small tags and cut ends)
VHH: B12 VHH with T28P, M51L, S53A, E55D, Y79D, S96A, V101G
notes: periplasmic extract; also called 21063
B15: anti-IL-12Rβ2 VHH clone 3CAHM40 (VHH, not shown: small tags and cut ends)
VHH: B12 VHH with V63M, M82L, V101A
notes: periplasmic extract
B16: anti-IL-12Rβ2 VHH clone 3CRHM85 (VHH, not shown: small tags and cut ends)
VHH: QVQLQESGGGLVQPGGSLRLSCAASRRTFSKHAMAWFRQAPGKEREFVAVVRWSGIITYYADSVKGRFTISRDDAKNTVYLQMDSLKPEDTAVYYCAAGDYRGNGYYVPGMYDYWGQGTQVTVSS
notes: periplasmic extract; also called 21061

The binders below were run against T1, biotinylated recombinant human IL-12Rβ2 … (assay: ELISA, periplasmic extract on biotinylated human IL-12Rβ2; control streptavidin-coated blocked wells).

Binder	ELISA binding hIL-12RB2/control
B1	1.38 ratio to control

Each binder was assayed against T2, human IL-12Rβ2 expressed on cells (assay: cell-based or functional assay).

Binder	% Specific Cell Lysis at 0.00125 ug/mL	% Specific Cell Lysis at 0.5 ug/mL	% Specific Cell Lysis at 10 ug/mL
B2	52.7%	60.9%	69.5%

What follows are binders tested against T3, human IL-12Rβ2 (assay: flow cytometry, P.E. on transfected HEK293T cells).

Binder	% cells bound	dMFI
B3	28.7%	556
B4	37.6%	784
B5	24.4%	558
B6	19.5%	397
B7	36%	759
B8	35.3%	694
B9	35.8%	689
B10	37.3%	826
B11	36.7%	767
B12	30.4%	495
B13	33.7%	635
B14	33.7%	721
B15	32.7%	544
B16	31.2%	676

Each binder was assayed against T4, mouse IL-12Rβ2 (assay: flow cytometry, P.E. on transfected HEK293T cells).

Binder	% cells bound	dMFI
B3	0.18%	86
B4	7.51%	294
B5	10.7%	351
B6	10.4%	357
B7	17.1%	421
B8	17.2%	470
B9	18.6%	412
B10	16%	425
B11	15.3%	369
B12	1.21%	103
B13	0.33%	43
B14	0.59%	133
B15	1.02%	105
B16	0.74%	157

From US20260209362A1 (VIB VZW, published 2026)
